Reference: PMC8849274 (Oncotarget, 2022)
Where two headings read alike, the source gives them in different places.

Experiments:
Type in all cases: in vivo
[1] = Biodistribution in mice bearing CaSki xenografts; conditions: female, athymic nude, mouse, iv, total radioactivity; for tissue uptake at 1 h: 1 h p.i.; for tissue uptake at 24 h: 24 h p.i.
From the text: (§1) Animals were supplied by Charles River Laboratories (Wilmington, MA, USA), and were handled in compliance with the Guidelines for Care and Use of Research Animals established by the Division of Comparative Medicine and the Animal Studies Committee of Washington University School of Medicine under protocol #20–0214. Female athymic nude mice were inoculated on the right flank with 10 × 10^6 CaSki or 5 × 10^6 BxPC-3 cells. Tumors were allowed to grow until they approached approximately 100 mm^3 in volume. Radiolabeled peptides were diluted in saline to a dose of 0.37 MBq (10 μCi) per 100 μl. […] For blocking experiments, non-PEGylated peptide (100 μg in 100 μL saline) was injected ten minutes before radiotracer. Blood, lung, liver, spleen, kidney, muscle, heart, bone, and tumor were harvested. The amount of radioactivity in each organ was determined by gamma counting, and the percent injected dose per gram of tissue (% ID/g) was calculated.

[2] = Small animal PET/CT imaging, BxPC-3 tumors; conditions: female, mouse, tumor (BxPC-3 xenograft), iv, total radioactivity, athymic nude mice bearing BxPC-3 tumors, 3.7 MBq i.v., without blocking, n = 3, read-out: SUVmax of tumors
Description: BxPC-3 cells (5 × 10^6) were inoculated in the right shoulder of female athymic nude mice 3–4 weeks before PET imaging sessions. All the experiments involving animals followed the Guidelines for Care and Use of Research Animals established by the Division of Comparative Medicine and the Animal Studies Committee of Washington University School of Medicine under protocol #20–0214. […] Mice were imaged with CT followed by static PET scans at 1, 4, and 24 h after tracer administration on an Inveon small animal PET/CT scanner (Siemens Medical Solutions, Malvern, PA, USA). Static images were collected for 20 min and reconstructed with the maximum a posteriori (MAP) reconstruction algorithm using the Inveon Reseach Workstation image display software (Siemens). Regions of interest (ROI) were selected based on co-registered anatomical CT images, and the associated radioactivity was measured using the Inveon software. The maximum standard uptake value (SUV) was calculated as the highest regional radioactivity concentration (nCi/cc) × animal weight (g)/decay-corrected amount of injected dose (nCi).

[3] = Biodistribution in mice bearing BxPC-3 xenografts; conditions: female, athymic nude, mouse, iv, total radioactivity, BxPC-3 tumor-bearing mice, 1 h p.i.
From the text: as §1

Compound `CC(C)C[C@H](NC(=O)[C@H](CC(=O)O)NC(=O)CNC(=O)[C@H](CCCNC(=N)N)NC(=O)[C@H](CC(C)C)NC(=O)[C@H](CC(N)=O)NC(=O)[C@@H]1CCCN1C(=O)[C@@H](NC(=O)[C@H](C)NC(=O)[C@H](CC(N)=O)NC(=O)CCOCCOCCOCCOCCOCCOCCOCCOCCOCCOCCOCCOCCOCCOCCOCCOCCOCCOCCOCCOCCOCCOCCOCCOCCOCCOCCOCCOCCNC(=O)CN1CCN(CC(=O)O)CCN(CC(=O)O)CCN(CC(=O)O)CC1)C(C)C)C(=O)N[C@@H](CCC(N)=O)C(=O)N[C@H](C(=O)N[C@@H](CC(C)C)C(=O)N[C@@H](C)C(=O)N[C@@H](CCC(N)=O)C(=O)N[C@@H](CCCCN)C(=O)N[C@H](C(=O)N[C@@H](C)C(=O)N[C@@H](CCCNC(=N)N)C(=O)N[C@H](C(=O)NCCOCCOCCOCCOCCOCCOCCOCCOCCOCCOCCOCCOCCOCCOCCOCCOCCOCCOCCOCCOCCOCCOCCOCCOCCOCCOCCOCCOCCC(N)=O)[C@@H](C)O)C(C)C)C(C)C` [[^64Cu]Cu-DOTA-(PEG28)2-A20FMDV2, metal not drawn] has a tissue uptake at 1 h ([1]; blood, CaSki tumor-bearing mice, 0.37 MBq i.v., gamma counting, mean, n = 4, read-out: Uptake in Blood) of 0.22 %ID/g, a tissue uptake at 24 h ([1]; blood, CaSki tumor-bearing mice, 0.37 MBq i.v., read-out: Radioactivity remaining in the blood) of 0.26 ± 0.07 %ID/g and a tissue uptake at 1 h ([1]; blood, CaSki tumor-bearing mice, non-PEGylated A20FMDV2 100 μg injected 10 min before radiotracer, read-out: Uptake in Blood, 1 h Block) of 0.13 %ID/g. It also gave a tissue uptake at 1 h ([1]; bone, CaSki tumor-bearing mice, 0.37 MBq i.v., gamma counting, mean, n = 4, read-out: Uptake in Bone) of 0.62 %ID/g, a tissue uptake at 1 h ([1]; bone, CaSki tumor-bearing mice, non-PEGylated A20FMDV2 100 μg injected 10 min before radiotracer, read-out: Uptake in Bone, 1 h Block) of 0.27 %ID/g and a tissue uptake at 1 h ([1]; heart, CaSki tumor-bearing mice, 0.37 MBq i.v., gamma counting, mean, n = 4, read-out: Uptake in Heart) of 0.71 %ID/g. The tissue uptake at 1 h ([1]; heart, CaSki tumor-bearing mice, non-PEGylated A20FMDV2 100 μg injected 10 min before radiotracer, read-out: Uptake in Heart, 1 h Block) was 0.58 %ID/g, the tissue uptake at 1 h ([1]; kidney, CaSki tumor-bearing mice, 0.37 MBq i.v., gamma counting, mean, n = 4, read-out: Uptake in Kidney) was 42.7 ± 4.03 %ID/g and the tissue uptake at 4 h ([1]; kidney, CaSki tumor-bearing mice, 0.37 MBq i.v., 4 h p.i.) was 37 ± 10.6 %ID/g. The tissue uptake at 24 h ([1]; kidney, CaSki tumor-bearing mice, 0.37 MBq i.v., read-out: Uptake in Kidney) was 21 ± 4.67 %ID/g, the tissue uptake at 1 h ([1]; kidney, CaSki tumor-bearing mice, non-PEGylated A20FMDV2 100 μg injected 10 min before radiotracer, read-out: Uptake in Kidney, 1 h Block) was 35.5 %ID/g and the tissue uptake at 1 h ([1]; liver, CaSki tumor-bearing mice, 0.37 MBq i.v., gamma counting, mean, n = 4, read-out: Uptake in Liver) was 1.04 %ID/g. The tissue uptake at 1 h ([1]; liver, CaSki tumor-bearing mice, non-PEGylated A20FMDV2 100 μg injected 10 min before radiotracer, read-out: Uptake in Liver, 1 h Block) was 0.94 %ID/g, the tissue uptake at 1 h ([1]; lung, CaSki tumor-bearing mice, 0.37 MBq i.v., gamma counting, mean, n = 4, read-out: Uptake in Lung) was 1.37 %ID/g and the tissue uptake at 1 h ([1]; lung, CaSki tumor-bearing mice, non-PEGylated A20FMDV2 100 μg injected 10 min before radiotracer, read-out: Uptake in Lung, 1 h Block) was 1.19 %ID/g. The tissue uptake at 1 h ([1]; muscle, CaSki tumor-bearing mice, 0.37 MBq i.v., gamma counting, mean, n = 4, read-out: Uptake in Muscle) was 0.73 %ID/g, the tissue uptake at 1 h ([1]; muscle, CaSki tumor-bearing mice, non-PEGylated A20FMDV2 100 μg injected 10 min before radiotracer, read-out: Uptake in Muscle, 1 h Block) was 0.51 %ID/g and the tissue uptake at 1 h ([1]; spleen, CaSki tumor-bearing mice, 0.37 MBq i.v., gamma counting, mean, n = 4, read-out: Uptake in Spleen) was 0.17 %ID/g. For the same compound, the tissue uptake at 1 h ([1]; spleen, CaSki tumor-bearing mice, non-PEGylated A20FMDV2 100 μg injected 10 min before radiotracer, read-out: Uptake in Spleen, 1 h Block) was 0.13 %ID/g, the tissue uptake at 1 h ([1]; tumor (CaSki xenograft), 0.37 MBq i.v., gamma counting, mean, n = 4, read-out: Tumor Uptake) was 0.95 ± 0.29 %ID/g and the tissue uptake at 1 h ([1]; tumor (CaSki xenograft), non-PEGylated A20FMDV2 100 μg injected 10 min before radiotracer, read-out: Tumor uptake, 1 h Block) was 0.65 ± 0.17 %ID/g. It also gave an SUV at 1 h ([2]; PET at 1 h) of 0.44 ± 0.02 SUV, an SUV at 4 h ([2]; PET at 4 h) of 0.57 ± 0.15 SUV and an SUV at 24 h ([2]; PET at 24 h) of 0.69 ± 0.09 SUV. For the same compound, the tissue uptake at 1 h ([3]; blood, 0.37 MBq i.v., gamma counting, mean, n = 4, read-out: Uptake in Blood) was 0.28 %ID/g, the tissue uptake at 1 h ([3]; blood, non-PEGylated A20FMDV2 100 μg injected 10 min before radiotracer, read-out: Uptake in Blood, 1 h Block) was 0.24 %ID/g and the tissue uptake at 1 h ([3]; bone, 0.37 MBq i.v., gamma counting, mean, n = 4, read-out: Uptake in Bone) was 0.25 %ID/g. The tissue uptake at 1 h ([3]; bone, non-PEGylated A20FMDV2 100 μg injected 10 min before radiotracer, read-out: Uptake in Bone, 1 h Block) was 0.28 %ID/g, the tissue uptake at 1 h ([3]; heart, 0.37 MBq i.v., gamma counting, mean, n = 4, read-out: Uptake in Heart) was 1.01 %ID/g and the tissue uptake at 1 h ([3]; heart, non-PEGylated A20FMDV2 100 μg injected 10 min before radiotracer, read-out: Uptake in Heart, 1 h Block) was 0.34 %ID/g. The tissue uptake at 1 h ([3]; 0.37 MBq i.v., gamma counting, mean, n = 4, read-out: Tumor Uptake) was 2.12 ± 0.83 %ID/g, the tissue uptake at 1 h ([3]; kidney, 0.37 MBq i.v., gamma counting, mean, n = 4, read-out: Uptake in Kidney) was 38 %ID/g and the tissue uptake at 1 h ([3]; kidney, non-PEGylated A20FMDV2 100 μg injected 10 min before radiotracer, read-out: Uptake in Kidney, 1 h Block) was 27.6 %ID/g. The tissue uptake at 1 h ([3]; liver, 0.37 MBq i.v., gamma counting, mean, n = 4, read-out: Uptake in Liver) was 2.79 %ID/g, the tissue uptake at 1 h ([3]; liver, non-PEGylated A20FMDV2 100 μg injected 10 min before radiotracer, read-out: Uptake in Liver, 1 h Block) was 2.59 %ID/g and the tissue uptake at 1 h ([3]; lung, 0.37 MBq i.v., gamma counting, mean, n = 4, read-out: Uptake in Lung) was 1.73 %ID/g. It also gave a tissue uptake at 1 h ([3]; lung, non-PEGylated A20FMDV2 100 μg injected 10 min before radiotracer, read-out: Uptake in Lung, 1 h Block) of 1.14 %ID/g, a tissue uptake at 1 h ([3]; muscle, 0.37 MBq i.v., gamma counting, mean, n = 4, read-out: Uptake in Muscle) of 0.62 %ID/g and a tissue uptake at 1 h ([3]; muscle, non-PEGylated A20FMDV2 100 μg injected 10 min before radiotracer, read-out: Uptake in Muscle, 1 h Block) of 0.18 %ID/g. It also gave a tissue uptake at 1 h ([3]; spleen, 0.37 MBq i.v., gamma counting, mean, n = 4, read-out: Uptake in Spleen) of 0.3 %ID/g, a tissue uptake at 1 h ([3]; spleen, non-PEGylated A20FMDV2 100 μg injected 10 min before radiotracer, read-out: Uptake in Spleen, 1 h Block) of 0.34 %ID/g and a tissue uptake at 1 h ([3]; tumor (BxPC-3 xenograft), non-PEGylated A20FMDV2 100 μg injected 10 min before radiotracer, read-out: Tumor uptake, 1 h Block) of 0.71 ± 0.16 %ID/g.
